Substrate in this series: CC/C=C\CCOC(C)=O
Description: GC quantification of (Z)-3-hexenol formed, nonlinear regression. In kind it is biochemical, Spodoptera littoralis. To be noted: 20 mM Tris pH 7.4 and 28 °C (stated for the hydrolysis assay), 5 min incubation, 1 mM to 20 mM substrate, no detergent.

Usually Km stands for the concentration of substrate that gives half-maximal velocity.

B1: SlCXE10 (Spodoptera littoralis) (protein)
chain: MVQVRVSEGVLEGEQVQNEYGGSFYRFRGIPYAQPPLGDLRFKAPQPIKPWQGVRQAKQFGSVCYQYNPTNLGLSNMSEDCLYVNVYTPDIKPQTPIPVMVWIHGGGFMWGSGNDDLYGPEFLIRHNVVLVTFNYRLEALGFLCLDTADVPGNAGMKDQVAALRWVKRNIANFGGNPDNITIFGESAGGGSVSHHLISPMSKGLFNRAIPQSGSTACFWATAFEPKEKAILLAKQLGFHSEDPKELYEFFKKQPCENLVKLNLQVTTSQKSYEIHFSIANEKDFGQERFFYGDIVDVIKNNLQEGVDIMTGYTKDEYTIAVSIGGPLEDILAKAQRYREFFAPKLLHNYGTITDQLEAARKLQKFYFKNEKVSKDNIDNLLNYMSVDMFVYGVMFAAKLYSRKNKVYVYKFNCFSERNVLANAFCVGHLTDDRSVVSHADDLAYLFPVKLFTQKVNKTSVTFKLIDRVTTLWTNFAKYGNPTPDDSLGVKWLPYTLAAQDYMDIGNTLVPGNSPDKEELDFWESVLHQHLPKFSTLNQ
notes: complete ORF (no signal peptide), C-terminal 6His tag kept (pBlueBac4.5/V5-His TOPO), baculovirus / Sf21 cells, Ni-NTA purified, about 60 kDa (predicted 61 kDa)
B1: the Michaelis-Menten constant (Km) came to 11.4 ± 4.8 mM.

For the origin of these results see PMC2993938, “Characterization of an Antennal Carboxylesterase from the Pest Moth Spodoptera littoralis Degrading a Host Plant Odorant” (PLoS ONE, 2010).
